{"source": "paper PMC11577753", "about": "“Identification and characterization of a novel formaldehyde dehydrogenase in Bacillus subtilis” (Applied and Environmental Microbiology, 2024)", "proteins": {"B1": {"name": "YycR (Bacillus subtilis subsp. subtilis str. 168) (protein)", "chain": "MGGMALTGNKAVVYKGKGTVAVEDIGYPELILRDGPGVPKANVNRKCEHGVILKVITTNICGSDQHMVRGRTTAPEGLVLGHEITGEVIETGRDVEFIKKGDIVSVPFNIACGRCVMCKTQKTHVCLNVNPDRPGSAYGYVDMGGWVGGQSEYVMVPYADFQLLVFPDKEQALEKILDLTMLSDIFPTGFHGAYTAGVQTGSTVYIAGAGPVGLAAAHSAQLLGASTVIVGDLNEDRLAQARSFGCETVNVQKHDRLGEQIEQILGEPTVDAAVDCVGFEASGHGNQGEAPAAVLNSIMDVTQVGGSLGIPGLYVTEDPGAKDADAKTGSLKIRFGLGWAKAHTFVTGQTPAMTYNRNLMKAILSGRAQIAKAVNATVISLDDAPKGYSDFDKGAAKKFVIDPHGTLK", "notes": "full-length, C-terminal His tag (pNIC-CH) kept, E. coli T7 Express, HisTrap purified, 44 kDa; zinc-type, metal as purified"}}, "substrate": "C=O", "experiment": "purified protein", "assay_type": "biochemical, Bacillus subtilis", "conditions": "10 mM NAD+, 50 mM BISTRIS propane pH 9.0, 25 mM NaCl, 37 °C (Fig 6 legend; methods say 40 °C)", "data": [{"protein": "B1", "values": [{"measurement": "Km", "result": "190 ± 50", "unit": "µM"}, {"measurement": "kcat", "result": 0.52, "unit": "s⁻¹"}]}]}
